How the values were obtained:
[1] = molecular target: 3.3 antibody (an anti-PEG antibody, IgG type); assay: ELISA, biotin-3.3Ab 0.11 µg/mL on plate coated with poly-protein G, streptavidin-HRP, OD405
[2] = molecular target: 3.3 antibody (an anti-PEG antibody, IgG type); assay: ELISA, biotin-3.3Ab 1 µg/mL on plate coated with poly-protein G, streptavidin-HRP, OD405
[3] = molecular target: 3.3 antibody (an anti-PEG antibody, IgG type); assay: ELISA, biotin-3.3Ab 0.0123 µg/mL on plate coated with poly-protein G, streptavidin-HRP, OD405
[4] = molecular target: 3.3 antibody (an anti-PEG antibody, IgG type); assay: ELISA, biotin-3.3Ab 0.33 µg/mL on plate coated with poly-protein G, streptavidin-HRP, OD405
[5] = molecular target: 3.3 antibody (an anti-PEG antibody, IgG type); assay: ELISA, biotin-3.3Ab 0.0371 µg/mL on plate coated with poly-protein G, streptavidin-HRP, OD405

fold antibody amount loaded vs commercial protein G-based plate [1]: 4 times | fold antibody amount loaded vs traditional polystyrene-based plate [1]: 10 times | fold antibody amount loaded vs commercial protein G-based plate [2]: 1.15 times | fold antibody amount loaded vs traditional polystyrene-based plate [2]: 1.3 times | fold antibody amount loaded vs commercial protein G-based plate [3]: 7.8 times | fold antibody amount loaded vs traditional polystyrene-based plate [3]: 14 times | fold antibody amount loaded vs commercial protein G-based plate [4]: 1.3 times | fold antibody amount loaded vs traditional polystyrene-based plate [4]: 2.2 times | fold antibody amount loaded vs commercial protein G-based plate [5]: 5.8 times | fold antibody amount loaded vs traditional polystyrene-based plate [5]: 20 times
B1: poly-protein G (soluble; HA, eight repeats of C2 domain of protein G with linkers, six histidines) (protein, not shown: small tags and cut ends)
chain: TYKLVINGKTLKGETTTEAVDAATAEKVFKQYANDNGVDGEWTYDDATKTFTVTEGGGGSGGGGSVETYKLVINGKTLKGETTTEAVDAATAEKVFKQYANDNGVDGEWTYDDATKTFTVTEGGGGSGGGGSVETYKLVINGKTLKGETTTEAVDAATAEKVFKQYANDNGVDGEWTYDDATKTFTVTEGGGGSGGGGSVETYKLVINGKTLKGETTTEAVDAATAEKVFKQYANDNGVDGEWTYDDATKTFTVTEGGGGSGGGGSVETYKLVINGKTLKGETTTEAVDAATAEKVFKQYANDNGVDGEWTYDDATKTFTVTEGGGGSGGGGSVETYKLVINGKTLKGETTTEAVDAATAEKVFKQYANDNGVDGEWTYDDATKTFTVTEGGGGSGGGGSVETYKLVINGKTLKGETTTEAVDAATAEKVFKQYANDNGVDGEWTYDDATKTFTVTEGGGGSGGGGSVETYKLVINGKTLKGETTTEAVDAATAEKVFKQYANDNGVDGEWTYDDATKTFTVTEGGGGSGGGGSVHHHHHH

Reference: US20190018005A1
